Biological target: recombinant murine RIIα (murine, UniProt P12367)
Assay: in situ overlay of fixed, permeabilized PMA-treated HEL cells with recombinant murine RIIα, immunofluorescence
Procedure: After 1 hr the coverslips were carefully washed in PBS and 0.2% BSA and incubated with either a mixture of FITC conjugated donkey anti-rabbit secondary antibody (1:100 dilution, Jackson ImmunoReasearch Laboratories Inc, West Grove, Pa.) and rhodamine conjugated phalloidin (1 unit/coverslip, Molecular Probes, Inc, Eugene, Oreg.) or secondary antibody alone. […] Prior to incubation with primary antibody, cells were incubated with 80 nM recombinant murine RII for 2 hr and unbound RII removed by washing three times in PBS and 0.2% BSA. […] Control coverslips were treated with the antibody to RII in the absence of exogenous murine RII. Cells were examined using a Leica confocal laser scanning system equipped with a Leitz Fluovert-FU inverted microscope and an argon/krypton laser.
Fixed and permeabilized cells pre-treated with PMA were overlayed with recombinant murine RIIα.

- binding result: binds
B1: gravin (full length, human; 250 kDa protein of cell lysates) (other)
chain: MGAGSSTEQRSPEQPPEGSSTPAEPEPSGGGPSAEAAPDTTADPAIAASDPATKLLQKNGQLSTINGVAEQDELSLQEGDLNGQKGALNGQGALNSQEEEEVIVTEVGQRDSEDVSERDSDKEMATKSAVVHDITDDGQEENRNIEQIPSSESNLEELTQPTESQANDIGFKKVFKFVGFKFTVKKDKTEKPDTVQLLTVKKDEGEGAAGAGDHQDPSLGAGEAASKESEPKQSTEKPEETLKREQSHAEISPPAESGQAVEECKEEGEEKQEKEPSKSAESPTSPVTSETGSTFKKFFTQGWAGWRKKTSFRKPKEDEVEASEKKKEQEPEKVDTEEDGKAEVASEKLTASEQAHPQEPAESAHEPRLSAEYEKVELPSEEQVSGSQGPSEEKPAPLATEVFDEKIEVHQEEVVAEVHVSTVEERTEEQKTEVEETAGSVPAEELVGMDAEPQEAEPAKELVKLKETCVSGEDPTQGADLSPDEKVLSKPPEGVVSEVEMLSSQERMKVQGSPLKKLFTSTGLKKLSGKKQKGKRGGGDEESGEHTQVPADSPDSQEEQKGESSASSPEEPEEITCLEKGLAEVQQDGEAEEGATSDGEKKREGVTPWASFKKMVTPKKRVRRPSESDKEDELDKVKSATLSSTESTASEMQEEMKGSVEEPKPEEPKRKVDTSVSWEALICVGSSKKRARRRSSSDEEGGPKAMGGDHQKADEAGKDKETGTDGILAGSQEHDPGQGSSSPEQAGSPTEGEGVSTWESFKRLVTPRKKSKSKLEEKSEDSIAGSGVEHSTPDTEPGKEESWVSIKKFIPGRRKKRPDGKQEQAPVEDAGPTGANEDDSDVPAVVPLSEYDAVEREKMEAQQAQKGAEQPEQKAATEVSKELSESQVHMMAAAVADGTRAATIIEERSPSWISASVTEPLEQVEAEAALLTEEVLEREVIAEEEPPTVTEPLPENREARGDTVVSEAELTPEAVTAAETAGPLGSEEGTEASAAEETTEMVSAVSQLTDSPDTTEEATPVQEVEGGVPDIEEQERRTQEVLQAVAEKVKEESQLPGTGGPEDVLQPVQRAEAERPEEQAEASGLKKETDVVLKVDAQEAKTEPFTQGKVVGQTTPESFEKAPQVTESIESSELVTTCQAETLAGVKSQEMVMEQAIPPDSVETPTDSETDGSTPVADFDAPGTTQKDEIVEIHEENEVHLVPVRGTEAEAVPAQKERPPAPSSFVFQEETKEQSKMEDTLEHTDKEVSVETVSILSKTEGTQEADQYADEKTKDVPFFEGLEGSIDTGITVSREKVTEVALKGEGTEEAECKKDDALELQSHAKSPPSPVEREMVVQVEREKTEAEPTHVNEEKLEHETAVTVSEEVSKQLLQTVNVPIIDGAKEVSSLEGSPPPCLGQEEAVCTKIQVQSSEASFTLTAAAEEEKVLGETANILETGETLEPAGAHLVLEEKSSEKNEDFAAHPGEDAVPTGPDCQAKSTPVIVSATTKKGLSSDLEGEKTTSLKWKSDEVDEQVACQEVKVSVAIEDLEPENGILELETKSSKLVQNIIQTAVDQFVRTEETATEMLTSELQTQAHVIKADSQDAGQETEKEGEEPQASAQDETPITSAKEESESTAVGQAHSDISKDMSEASEKTMTVEVEGSTVNDQQLEEVVLPSEEEGGGAGTKSVPEDDGHALLAERIEKSLVEPKEDEKGDDVDDPENQNSALADTDASGGLTKESPDTNGPKQKEKEDAQEVELQEGKVHSESDKAITPQAQEELQKQERESAKSELTES

From patent publication US6090929, “Protein binding fragments of gravin” (Oregon Health Science University, dated 2000)
